# Data taken from paper PMC12689202.
# Biological target: C3b (biotinylated) (human) (UniProt P01024)
# Assay: BLI; Octet RH384 (Sartorius); biotinylated C3b immobilized onto streptavidin biosensors; mini-CR1, FH or FHL-1 in the fluid phase
row,Kd,Substance
1,0.583 µM,factor H (from UniProt P08603 19-1231) (natural protein)
2,1.17 µM,factor H-like protein 1 (from UniProt P08603-2 19-449) (natural protein)
3,0.021 µM,"mini-CR1 (soluble fragment of complement receptor 1, complement control proteins 8-10) (domain or fragment)"
